Target: T1, GB-yeIF5-B6 (S. cerevisiae, UniProt P38431 241-405)
T1 sequence (looked up): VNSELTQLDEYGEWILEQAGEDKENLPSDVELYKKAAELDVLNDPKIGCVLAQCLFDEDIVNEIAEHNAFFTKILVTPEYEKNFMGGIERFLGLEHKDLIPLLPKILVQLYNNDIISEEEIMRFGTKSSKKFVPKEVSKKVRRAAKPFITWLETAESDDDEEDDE
Experiment: pull-down

binding result: binds
B1: GST-yeIF1A ΔC (lacking aa. 108-153) (domain or fragment, S. cerevisiae, UniProt P38912 1-107, looked up)
chain: MGKKNTKGGKKGRRGKNDSDGPKRELIYKEEGQEYAQITKMLGNGRVEASCFDGNKRMAHIRGKLRKKVWMGQGDIILVSLRDFQDDQCDVVHKYNLDEARTLKNQG

From publication PMC3917153 (Biochemistry, 2013)
